Test results reported in the supplement of paper PMC9112550, “Optimization of the antimicrobial peptide Bac7 by deep mutational scanning” (BMC Biology, 2022).

system: Escherichia coli TOP10; experiment: shrunken log2 fold change of peptide-encoding DNA abundance (4.5 h post-induction vs induction); higher = less antimicrobial activity (less host growth inhibition); conditions: time post-induction: 4.5 h; library: site-saturation at positions 5, 18, 19, 20
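Further: peptides expressed intracellularly from a pBAD plasmid library in pooled LB shake-flask culture, induced with 0.3% L-arabinose, DNA abundance read by NGS, three biological replicates, DESeq2 with apeglm shrinkage.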

Question: With RRIRRRPPRLPRPRPRPHDEPRP as the sequence, how does the “shrunken log2 fold change” value read?
Answer: 0.18

Question: Which “shrunken log2 fold change” value does the source give for RRIRFRPPRLPRPRPRPYFIPRP here?
Answer: -1.12

Question: Which “shrunken log2 fold change” value does the source give for RRIRWRPPRLPRPRPRPFNHPRP here?
Answer: -0.405

Question: How did the “shrunken log2 fold change” value turn out when RRIRFRPPRLPRPRPRPKLKPRP was run?
Answer: 0.0386

Question: RRIRPRPPRLPRPRPRPFIVPRP was tested. Which “shrunken log2 fold change” value did it give?
Answer: -0.257

Question: For RRIRDRPPRLPRPRPRPRCTPRP, which “shrunken log2 fold change” value is on record?
Answer: -0.054

Question: How did the “shrunken log2 fold change” value turn out when RRIRNRPPRLPRPRPRPPQVPRP was run?
Answer: 0.0214

Question: RRIRPRPPRLPRPRPRPASIPRP was tested. Which “shrunken log2 fold change” value did it give?
Answer: -0.228

Question: Which “shrunken log2 fold change” value does the source give for RRIRTRPPRLPRPRPRPYAMPRP here?
Answer: -0.462

Question: Which “shrunken log2 fold change” value does the source give for RRIRFRPPRLPRPRPRPRMYPRP here?
Answer: -0.151

Question: How did the “shrunken log2 fold change” value turn out when RRIRHRPPRLPRPRPRPQWAPRP was run?
Answer: -0.018

Question: Which “shrunken log2 fold change” value does the source give for RRIRSRPPRLPRPRPRPEYAPRP here?
Answer: 0.496

Question: With RRIRMRPPRLPRPRPRPLKYPRP as the sequence, how does the “shrunken log2 fold change” value read?
Answer: -0.0456

Question: Which “shrunken log2 fold change” value does the source give for RRIRARPPRLPRPRPRPKNIPRP here?
Answer: -0.127

Question: For RRIRCRPPRLPRPRPRPGKNPRP, which “shrunken log2 fold change” value is on record?
Answer: -0.133

Question: Which “shrunken log2 fold change” value does the source give for RRIRDRPPRLPRPRPRPRWDPRP here?
Answer: 0.196

Question: For RRIRYRPPRLPRPRPRPFPVPRP, which “shrunken log2 fold change” value is on record?
Answer: -0.149

Question: For RRIRARPPRLPRPRPRPLGEPRP, which “shrunken log2 fold change” value is on record?
Answer: 0.896

Question: How did the “shrunken log2 fold change” value turn out when RRIRSRPPRLPRPRPRPQITPRP was run?
Answer: -0.457

Question: With RRIRARPPRLPRPRPRPIGPPRP as the sequence, how does the “shrunken log2 fold change” value read?
Answer: 0.537

Question: With RRIRCRPPRLPRPRPRPLTSPRP as the sequence, how does the “shrunken log2 fold change” value read?
Answer: 0.208

Question: With RRIRYRPPRLPRPRPRPVDLPRP as the sequence, how does the “shrunken log2 fold change” value read?
Answer: 0.0483

Question: With RRIRVRPPRLPRPRPRPTNCPRP as the sequence, how does the “shrunken log2 fold change” value read?
Answer: -0.075

Question: How did the “shrunken log2 fold change” value turn out when RRIRYRPPRLPRPRPRPQRNPRP was run?
Answer: -0.758

Question: With RRIRCRPPRLPRPRPRPYKPPRP as the sequence, how does the “shrunken log2 fold change” value read?
Answer: -0.705

Question: With RRIRRRPPRLPRPRPRPCMKPRP as the sequence, how does the “shrunken log2 fold change” value read?
Answer: -0.0288

Question: Which “shrunken log2 fold change” value does the source give for RRIRCRPPRLPRPRPRPCNGPRP here?
Answer: -0.00386

Question: How did the “shrunken log2 fold change” value turn out when RRIRDRPPRLPRPRPRPKSEPRP was run?
Answer: 0.0995

Question: Which “shrunken log2 fold change” value does the source give for RRIRSRPPRLPRPRPRPDVRPRP here?
Answer: 0.0647

Question: With RRIRARPPRLPRPRPRPNKLPRP as the sequence, how does the “shrunken log2 fold change” value read?
Answer: -0.206

Question: With RRIRSRPPRLPRPRPRPWIPPRP as the sequence, how does the “shrunken log2 fold change” value read?
Answer: -0.119

Question: Which “shrunken log2 fold change” value does the source give for RRIRQRPPRLPRPRPRPWRRPRP here?
Answer: 0.241

Question: With RRIRVRPPRLPRPRPRPCRSPRP as the sequence, how does the “shrunken log2 fold change” value read?
Answer: 0.00156

Question: RRIRLRPPRLPRPRPRPPPSPRP was tested. Which “shrunken log2 fold change” value did it give?
Answer: 1.28

Question: For RRIRERPPRLPRPRPRPDWDPRP, which “shrunken log2 fold change” value is on record?
Answer: -0.248

Question: RRIRVRPPRLPRPRPRPSVSPRP was tested. Which “shrunken log2 fold change” value did it give?
Answer: -0.488

Question: For RRIRMRPPRLPRPRPRPCKEPRP, which “shrunken log2 fold change” value is on record?
Answer: -0.00822

Question: How did the “shrunken log2 fold change” value turn out when RRIRNRPPRLPRPRPRPSHTPRP was run?
Answer: -0.412

Question: RRIRCRPPRLPRPRPRPWHWPRP was tested. Which “shrunken log2 fold change” value did it give?
Answer: 0.0135

Question: With RRIRGRPPRLPRPRPRPMQEPRP as the sequence, how does the “shrunken log2 fold change” value read?
Answer: 0.161

Question: How did the “shrunken log2 fold change” value turn out when RRIRQRPPRLPRPRPRPALFPRP was run?
Answer: -0.0103

Question: With RRIRQRPPRLPRPRPRPGKNPRP as the sequence, how does the “shrunken log2 fold change” value read?
Answer: -0.294

Question: Which “shrunken log2 fold change” value does the source give for RRIRMRPPRLPRPRPRPQFIPRP here?
Answer: -0.0965

Question: For RRIRQRPPRLPRPRPRPNMHPRP, which “shrunken log2 fold change” value is on record?
Answer: -0.34

Question: With RRIRGRPPRLPRPRPRPRVWPRP as the sequence, how does the “shrunken log2 fold change” value read?
Answer: 0.547

Question: For RRIRERPPRLPRPRPRPFPSPRP, which “shrunken log2 fold change” value is on record?
Answer: -0.0393

Question: Which “shrunken log2 fold change” value does the source give for RRIRRRPPRLPRPRPRPGKIPRP here?
Answer: 0.343

Question: Which “shrunken log2 fold change” value does the source give for RRIRMRPPRLPRPRPRPNENPRP here?
Answer: 0.314

Question: With RRIRIRPPRLPRPRPRPRYYPRP as the sequence, how does the “shrunken log2 fold change” value read?
Answer: -0.372

Question: How did the “shrunken log2 fold change” value turn out when RRIRQRPPRLPRPRPRPRVVPRP was run?
Answer: 0.0149

Question: With RRIRDRPPRLPRPRPRPGMQPRP as the sequence, how does the “shrunken log2 fold change” value read?
Answer: 0.165

Question: For RRIRGRPPRLPRPRPRPTQWPRP, which “shrunken log2 fold change” value is on record?
Answer: 0.387

Question: How did the “shrunken log2 fold change” value turn out when RRIRKRPPRLPRPRPRPKQMPRP was run?
Answer: 0.471

Question: RRIRSRPPRLPRPRPRPKVYPRP was tested. Which “shrunken log2 fold change” value did it give?
Answer: 0.226

Question: Which “shrunken log2 fold change” value does the source give for RRIRFRPPRLPRPRPRPKWCPRP here?
Answer: -0.183

Question: With RRIRLRPPRLPRPRPRPKAVPRP as the sequence, how does the “shrunken log2 fold change” value read?
Answer: -0.0189

Question: RRIRYRPPRLPRPRPRPYQVPRP was tested. Which “shrunken log2 fold change” value did it give?
Answer: -0.289

Question: Which “shrunken log2 fold change” value does the source give for RRIRYRPPRLPRPRPRPVEFPRP here?
Answer: -1.06

Question: RRIRYRPPRLPRPRPRPLNWPRP was tested. Which “shrunken log2 fold change” value did it give?
Answer: -0.594

Question: RRIRQRPPRLPRPRPRPTTPPRP was tested. Which “shrunken log2 fold change” value did it give?
Answer: 0.402

Question: With RRIRIRPPRLPRPRPRPGYVPRP as the sequence, how does the “shrunken log2 fold change” value read?
Answer: -0.181

Question: RRIRNRPPRLPRPRPRPFSGPRP was tested. Which “shrunken log2 fold change” value did it give?
Answer: -0.277

Question: For RRIRARPPRLPRPRPRPPMHPRP, which “shrunken log2 fold change” value is on record?
Answer: 0.51

Question: RRIRYRPPRLPRPRPRPKPRPRP was tested. Which “shrunken log2 fold change” value did it give?
Answer: 0.515

Question: How did the “shrunken log2 fold change” value turn out when RRIRWRPPRLPRPRPRPTWPPRP was run?
Answer: 0.466

Question: RRIRTRPPRLPRPRPRPGEGPRP was tested. Which “shrunken log2 fold change” value did it give?
Answer: 0.177

Question: RRIRPRPPRLPRPRPRPTQIPRP was tested. Which “shrunken log2 fold change” value did it give?
Answer: 0.13

Question: RRIRNRPPRLPRPRPRPMCRPRP was tested. Which “shrunken log2 fold change” value did it give?
Answer: -0.0579

Question: How did the “shrunken log2 fold change” value turn out when RRIRTRPPRLPRPRPRPTNWPRP was run?
Answer: 0.155

Question: Which “shrunken log2 fold change” value does the source give for RRIRKRPPRLPRPRPRPWDTPRP here?
Answer: -0.00122

Question: With RRIRHRPPRLPRPRPRPEREPRP as the sequence, how does the “shrunken log2 fold change” value read?
Answer: 0.0173

Question: For RRIRERPPRLPRPRPRPGEFPRP, which “shrunken log2 fold change” value is on record?
Answer: 0.033

Question: RRIRARPPRLPRPRPRPSTCPRP was tested. Which “shrunken log2 fold change” value did it give?
Answer: 0.0421

Question: With RRIRMRPPRLPRPRPRPMWNPRP as the sequence, how does the “shrunken log2 fold change” value read?
Answer: 0.0246

Question: RRIRVRPPRLPRPRPRPWGAPRP was tested. Which “shrunken log2 fold change” value did it give?
Answer: 0.21
